Holding throughout (assay): ELISA on coated peptide
Test [1] has as its target T1, GPIb (residues 268-285) derived peptide sulfated at 1st tyrosine position.
T1 sequence (peptide, sulfated at 1st tyrosine position): GDEGDTDLYDYYPEEDTE

In test [2] the target is T2, PSGL-1 (residues 42-58) derived peptide sulfated at 2nd tyrosine position.
T2 sequence (peptide, sulfated at 2nd tyrosine position): QATEYEYLDYDFLPETE

In test [3] the target is T3, PSGL-1 (residues 42-58) derived peptide, non-sulfated.
T3 sequence (peptide): QATEYEYLDYDFLPETE

Test [4] addresses T4, CCR5 (residues 1-18) derived peptide sulfated at 3rd tyrosine position.
T4 sequence (peptide, sulfated at 3rd tyrosine position): MDYQVSSPIYDINYYTSE

Test [5] deals with T5, CCR5 (residues 1-18) derived peptide sulfated at 2nd tyrosine position.
T5 sequence (peptide, sulfated at 2nd tyrosine position): MDYQVSSPIYDINYYTSE

Test [6] concerns the target T6, PSGL-1 (residues 42-58) derived peptide sulfated at 3rd tyrosine position.
T6 sequence (peptide, sulfated at 3rd tyrosine position): QATEYEYLDYDFLPETE

In test [7] the target is T7, GPIb (residues 268-285) derived peptide, non-sulfated.
T7 sequence (peptide): GDEGDTDLYDYYPEEDTE

For test [8], the target named is T8, PSGL-1 (residues 42-58) derived peptide sulfated at 1st tyrosine position.
T8 sequence (peptide, sulfated at 1st tyrosine position): QATEYEYLDYDFLPETE

Test [9] concerns the target T9, CCR5 (residues 1-18) derived peptide, non-sulfated.
T9 sequence (peptide): MDYQVSSPIYDINYYTSE

Test [10] has as its target T10, GPIb (residues 268-285) derived peptide sulfated at 3rd tyrosine position.
T10 sequence (peptide, sulfated at 3rd tyrosine position): GDEGDTDLYDYYPEEDTE

Test [11] deals with T11, CCR5 (residues 1-18) derived peptide sulfated at 1st tyrosine position.
T11 sequence (peptide, sulfated at 1st tyrosine position): MDYQVSSPIYDINYYTSE

For N06 scFv (negative control), the ELISA reading at 450 nm in test [1] was determined as 0.07; in test [2] it was 0.06; in test [3], 0.06; in test [4] it was 0.06; in test [5], 0.06; in test [6] it was 0.06. For the same substance, the ELISA reading at 450 nm in test [7] is 0.07; in [8], 0.06; in test [9] it was 0.06; in test [10], 0.07; in test [11] it was 0.06.

These data come from US20050266009A1.
